Sequences and labels used below:
B1: GpH7-A5/GpH7-B3 variant S324_12R/GpL16-k0 (antibody, human IgG1, kappa)
heavy 1: not shown
heavy 2: not shown
light: DIVMTQSPLSLPVTPGEPASISCQASESLVHSNRNTYLHWYLQKPGQSPQLLIYKVSNRFSGVPDRFSGSGSGTDFTLKISRVEAEDVGVYYCSQNTHVPPTFGQGTKVEIERTVAAPSVFIFPPSDEQLKSGTASVVCLLNNFYPREAKVQWKVDNALQSGNSQESVTEQDSKDSTYSLSSTLTLSKADYEKHKVYACEVTHQGLSSPVTKSFNRGEC
notes: He Ab: mutation in one H chain only; also called He Ab
B2: GpH7-A5/GpH7-B3 variant Y300_02A/GpL16-k0 (antibody, human IgG1, kappa)
heavy 1: not shown
heavy 2: not shown
light: B1 light
notes: as for B1
B3: GpH7-A5/GpH7-B3 variant Y300_06M/GpL16-k0 (antibody, human IgG1, kappa)
heavy 1: not shown
heavy 2: not shown
light: B1 light
notes: as for B1
B4: GpH7-A5/GpH7-B3 variant S324_01G/GpL16-k0 (antibody, human IgG1, kappa)
heavy 1: not shown
heavy 2: not shown
light: B1 light
notes: as for B1
B5: GpH7-A5/GpH7-B3 variant Y300_05P/GpL16-k0 (antibody, human IgG1, kappa)
heavy 1: not shown
heavy 2: not shown
light: B1 light
notes: as for B1
B6: GpH7-A5/GpH7-B3 variant S337_04F/GpL16-k0 (antibody, human IgG1, kappa)
heavy 1: not shown
heavy 2: not shown
light: B1 light
notes: as for B1
B7: GpH7-A5/GpH7-B3 variant S324_15Y/GpL16-k0 (antibody, human IgG1, kappa)
heavy 1: not shown
heavy 2: not shown
light: B1 light
notes: as for B1
B8: GpH7-A5/GpH7-B3 variant Y300_13S/GpL16-k0 (antibody, human IgG1, kappa)
heavy 1: not shown
heavy 2: not shown
light: B1 light
notes: as for B1
B9: GpH7-A5/GpH7-B3 variant S337_12R/GpL16-k0 (antibody, human IgG1, kappa)
heavy 1: not shown
heavy 2: not shown
light: B1 light
notes: as for B1
B10: GpH7-A5/GpH7-B3 variant Y300_12R/GpL16-k0 (antibody, human IgG1, kappa)
heavy 1: not shown
heavy 2: not shown
light: B1 light
notes: as for B1
B11: GpH7-A5/GpH7-B3 variant S324_16H/GpL16-k0 (antibody, human IgG1, kappa)
heavy 1: not shown
heavy 2: not shown
light: B1 light
notes: as for B1
B12: GpH7-A5/GpH7-B3 variant S324_10E/GpL16-k0 (antibody, human IgG1, kappa)
heavy 1: not shown
heavy 2: not shown
light: B1 light
notes: as for B1
B13: GpH7-A5/GpH7-B3 variant S337_11K/GpL16-k0 (antibody, human IgG1, kappa)
heavy 1: not shown
heavy 2: not shown
light: B1 light
notes: as for B1
B14: GpH7-A5/GpH7-B3 variant Y300_08L/GpL16-k0 (antibody, human IgG1, kappa)
heavy 1: not shown
heavy 2: not shown
light: B1 light
notes: as for B1
B15: GpH7-A5/GpH7-B3 variant S324_02A/GpL16-k0 (antibody, human IgG1, kappa)
heavy 1: not shown
heavy 2: not shown
light: B1 light
notes: as for B1
B16: GpH7-A5/GpH7-B3 variant S324_11K/GpL16-k0 (antibody, human IgG1, kappa)
heavy 1: not shown
heavy 2: not shown
light: B1 light
notes: as for B1
B17: GpH7-A5/GpH7-B3 variant S337_03V/GpL16-k0 (antibody, human IgG1, kappa)
heavy 1: not shown
heavy 2: not shown
light: B1 light
notes: as for B1
B18: GpH7-A5/GpH7-B3 variant S324_09D/GpL16-k0 (antibody, human IgG1, kappa)
heavy 1: not shown
heavy 2: not shown
light: B1 light
notes: as for B1
B19: GpH7-A5/GpH7-B3 variant S337_19Q/GpL16-k0 (antibody, human IgG1, kappa)
heavy 1: not shown
heavy 2: not shown
light: B1 light
notes: as for B1
B20: GpH7-A5/GpH7-B3 variant S337_02A/GpL16-k0 (antibody, human IgG1, kappa)
heavy 1: not shown
heavy 2: not shown
light: B1 light
notes: as for B1
B21: GpH7-A5/GpH7-B3 variant Y300_20W/GpL16-k0 (antibody, human IgG1, kappa)
heavy 1: not shown
heavy 2: not shown
light: B1 light
notes: as for B1

T1 sequence (P12314 16-292): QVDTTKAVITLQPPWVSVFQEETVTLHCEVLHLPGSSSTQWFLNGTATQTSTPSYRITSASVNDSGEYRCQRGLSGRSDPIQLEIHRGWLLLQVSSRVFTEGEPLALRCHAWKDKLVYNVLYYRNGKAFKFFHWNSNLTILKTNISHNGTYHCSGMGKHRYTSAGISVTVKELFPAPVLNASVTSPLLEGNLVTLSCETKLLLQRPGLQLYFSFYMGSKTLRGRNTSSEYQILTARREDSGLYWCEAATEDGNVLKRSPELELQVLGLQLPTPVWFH

One experiment concerns the target T1, FcγRIa (human, UniProt P12314 16-292).
T1 construct: extracellular domain; Soluble extracellular domain with C-terminal His tag, used as analyte; also called FcgRI; CD64; not shown: His tag at the C terminus
The experiment can be described thus: SPR (Biacore), captured antibody, FcγR as analyte, relative binding.
As to B1, the He/Con_1a is 102 % of GpH7-A5/GpH7-B3/GpL16-k0.

For B2, the He/Con_1a is 112 % of GpH7-A5/GpH7-B3/GpL16-k0.

On to B3, for which the He/Con_1a is 112 % of GpH7-A5/GpH7-B3/GpL16-k0.

B4: the He/Con_1a is 98.8 % of GpH7-A5/GpH7-B3/GpL16-k0.

In the case of B5, the He/Con_1a was 60.2 % of GpH7-A5/GpH7-B3/GpL16-k0.

As for B6, the He/Con_1a was 106 % of GpH7-A5/GpH7-B3/GpL16-k0.

As to B7, the He/Con_1a is 114 % of GpH7-A5/GpH7-B3/GpL16-k0.

In the case of B8, the He/Con_1a is 111 % of GpH7-A5/GpH7-B3/GpL16-k0.

Consider B9, for which the He/Con_1a was 106 % of GpH7-A5/GpH7-B3/GpL16-k0.

Consider B10, for which the He/Con_1a was 105 % of GpH7-A5/GpH7-B3/GpL16-k0.

For the molecule B11, the He/Con_1a is 113 % of GpH7-A5/GpH7-B3/GpL16-k0.

On to B12, for which the He/Con_1a was 105 % of GpH7-A5/GpH7-B3/GpL16-k0.

As to B13, the He/Con_1a was 104 % of GpH7-A5/GpH7-B3/GpL16-k0.

In the case of B14, the He/Con_1a was 113 % of GpH7-A5/GpH7-B3/GpL16-k0.

B15: the He/Con_1a was 103 % of GpH7-A5/GpH7-B3/GpL16-k0.

As for B16, the He/Con_1a was 102 % of GpH7-A5/GpH7-B3/GpL16-k0.

Consider B17, for which the He/Con_1a was 107 % of GpH7-A5/GpH7-B3/GpL16-k0.

With B18, the He/Con_1a is 104 % of GpH7-A5/GpH7-B3/GpL16-k0.

Take B19: the He/Con_1a is 105 % of GpH7-A5/GpH7-B3/GpL16-k0.

As to B20, the He/Con_1a was 106 % of GpH7-A5/GpH7-B3/GpL16-k0.

Turning to B21, the He/Con_1a was 112 % of GpH7-A5/GpH7-B3/GpL16-k0.

In a further experiment the target is T2, FcγRIIb (human, UniProt P31994 43-217).
T2 construct: extracellular domain; Soluble extracellular domain with C-terminal His tag, used as analyte; also called FcgRIIb; CD32B; not shown: His tag at the C terminus
T2 sequence (looked up): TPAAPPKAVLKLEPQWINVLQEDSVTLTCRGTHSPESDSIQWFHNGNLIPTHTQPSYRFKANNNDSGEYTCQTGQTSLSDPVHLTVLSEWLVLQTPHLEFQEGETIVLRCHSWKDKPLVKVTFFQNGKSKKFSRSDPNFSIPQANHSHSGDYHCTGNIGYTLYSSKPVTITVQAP
Described as above.
For B1, the He/Con_2b is 63.1 % of GpH7-A5/GpH7-B3/GpL16-k0.

For the molecule B2, the He/Con_2b is 69.2 % of GpH7-A5/GpH7-B3/GpL16-k0.

Consider B3, for which the He/Con_2b was 84.3 % of GpH7-A5/GpH7-B3/GpL16-k0.

As to B4, the He/Con_2b was 81.1 % of GpH7-A5/GpH7-B3/GpL16-k0.

With B5, the He/Con_2b is 7.3 % of GpH7-A5/GpH7-B3/GpL16-k0.

B6: the He/Con_2b was 97.8 % of GpH7-A5/GpH7-B3/GpL16-k0.

As to B7, the He/Con_2b is 88.2 % of GpH7-A5/GpH7-B3/GpL16-k0.

Consider B8, for which the He/Con_2b is 53.9 % of GpH7-A5/GpH7-B3/GpL16-k0.

Regarding B9, the He/Con_2b is 99.5 % of GpH7-A5/GpH7-B3/GpL16-k0.

Take B10: the He/Con_2b was 41.2 % of GpH7-A5/GpH7-B3/GpL16-k0.

B11: the He/Con_2b was 83.5 % of GpH7-A5/GpH7-B3/GpL16-k0.

With B12, the He/Con_2b is 77.4 % of GpH7-A5/GpH7-B3/GpL16-k0.

As for B13, the He/Con_2b was 94.3 % of GpH7-A5/GpH7-B3/GpL16-k0.

Consider B14, for which the He/Con_2b is 73.6 % of GpH7-A5/GpH7-B3/GpL16-k0.

In the case of B15, the He/Con_2b was 78.3 % of GpH7-A5/GpH7-B3/GpL16-k0.

On to B16, for which the He/Con_2b is 68.6 % of GpH7-A5/GpH7-B3/GpL16-k0.

With B17, the He/Con_2b is 98.9 % of GpH7-A5/GpH7-B3/GpL16-k0.

With B18, the He/Con_2b was 85.8 % of GpH7-A5/GpH7-B3/GpL16-k0.

On to B19, for which the He/Con_2b was 99.7 % of GpH7-A5/GpH7-B3/GpL16-k0.

On to B20, for which the He/Con_2b was 97.2 % of GpH7-A5/GpH7-B3/GpL16-k0.

For B21, the He/Con_2b was 84.1 % of GpH7-A5/GpH7-B3/GpL16-k0.

(Values after patent publication US20150344570A1 (published 2015).)
